Measured values: patent US20260034233A1 (SUNMED THERAPEUTIC, published 2026)
Each block holds one binder with its values, some of them ahead of it.

Legend:
human Galectin-3 [1] = target: T1, human Galectin-3 (human, UniProt P17931 2-250, limits assumed); test: ELISA on human Galectin-3
T1 construct: also called Human GAL-3; hGal-3

human Galectin-3 [2] = target: T1, human Galectin-3; test: SPR
Mouse GAL-3 = target: T2, Mouse GAL-3 (mouse, UniProt P16110 2-264, limits assumed); test: SPR
T2 construct: also called mouse Galectin-3

Rat GAL-3 = target: T3, Rat GAL-3 (rat, UniProt P08699 2-262, limits assumed); test: SPR
T3 construct: also called rat Galectin-3
T3 sequence (looked up): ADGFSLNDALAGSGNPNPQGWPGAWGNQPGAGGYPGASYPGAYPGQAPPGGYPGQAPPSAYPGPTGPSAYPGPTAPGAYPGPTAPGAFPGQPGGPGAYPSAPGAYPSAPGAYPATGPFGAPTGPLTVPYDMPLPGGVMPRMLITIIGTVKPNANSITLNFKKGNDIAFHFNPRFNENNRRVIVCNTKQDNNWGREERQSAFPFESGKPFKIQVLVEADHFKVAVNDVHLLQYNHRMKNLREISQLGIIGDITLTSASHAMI

Gal3-e = target: T4, Gal3-e; test: size exclusion chromatography of the mixture
T4 construct: also called Galectin3-e; Gal-3 peptide
T4 peptide: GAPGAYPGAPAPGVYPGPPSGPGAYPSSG
Description: For X-ray diffraction, first we developed a homogeneous Gal3-e-Fab complex through Size Exclusion Chromatography (SEC) and analyzed the complex through crystallization screening and optimization. However, no diffraction patterns but only large block- and rod-shaped crystals were observed by multi-rounds of optimization. Screened commercial kits included crystal screens, structure screens, Index, JCSG plus, PEG/Ion1&2, ProPlex screens, and additive screens.
Excess Gal3-e were incubated with the Fab on ice for 30 minutes. After the incubation, Gal3-e-Fab complex was isolated from the mixture using SEC (Column: Superdex 75 increase 10/300).

T1 sequence (P17931 2-250 limits assumed): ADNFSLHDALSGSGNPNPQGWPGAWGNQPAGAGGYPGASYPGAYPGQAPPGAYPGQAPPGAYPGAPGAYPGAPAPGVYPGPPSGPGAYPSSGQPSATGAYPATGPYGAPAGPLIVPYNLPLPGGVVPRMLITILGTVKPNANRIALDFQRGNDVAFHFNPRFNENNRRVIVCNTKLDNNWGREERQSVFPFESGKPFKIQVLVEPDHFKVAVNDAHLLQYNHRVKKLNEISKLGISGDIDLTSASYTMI
T2 sequence (P16110 2-264 limits assumed): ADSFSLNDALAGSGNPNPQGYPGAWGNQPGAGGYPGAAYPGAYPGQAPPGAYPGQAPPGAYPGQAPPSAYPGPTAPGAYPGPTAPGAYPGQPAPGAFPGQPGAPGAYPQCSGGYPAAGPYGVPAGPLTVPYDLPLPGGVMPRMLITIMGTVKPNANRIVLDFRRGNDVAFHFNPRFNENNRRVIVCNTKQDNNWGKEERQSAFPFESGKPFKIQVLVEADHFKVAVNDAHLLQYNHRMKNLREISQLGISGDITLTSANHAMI

- binding result (human Galectin-3 [1]): binds
B1: SIF002 (antibody, V domains shown)
VH: EVQLLESGGGLVQPGGSLRLSCAASGFTFSRFWMSWVRQAPGKGLEWVSEISPDSNTIDLTPSLKDRFTISRDNSKNTLYLQMNSLRAEDTAVYYCAKPYYGYYWGQGTLVTVSS
VL: DIVMTQSPDSLAVSLGERATMNCRSSQSLFSSTNQKNYLTWYQQKPGQPPKLLIYWASSRESGVPDRFSGSGSGTDFTLTISSLQAEDVAVYYCQNDYTSPFTFGQGTRLEIK

- Kd (human Galectin-3 [2]): 71.5 nM
- Kd (Mouse GAL-3): 10.9 nM
- Kd (Rat GAL-3): 11.7 nM
B2: SIF001 (antibody, V domains shown)
VH: QVQLVQSGSELKKPGASVKVSCKASGYTFTNYGMNWVRQAPGQGLEWMGWINTYTGEPTYADDFKGRFVFSLDTSVSTAYLQISSLKNEDMAVYFCARYAMDYWGQGTLVTVSS
VL: EAVVTQEPSLTVSPGGTVTLTCRSSTGAVTTSNYANWVQQKPGQAFTGLIGGTSNRAPGTPARFSGSLLGDKAALTLLGAQPEDEAEYFCALWYSTHYVFGGGTKLTVL
notes: Humanized monoclonal antibody raised against human GAL-3; also called SIF001 Ab; SF001

- binding result (Gal3-e): binds
B3: Fab of the SIF001 antibody (Fab, V domains shown)
VH: QVQLVQSGSELKKPGASVKVSCKASGYTFTNYGMNWVRQAPGQGLEWMGWINTYTGEPTYADDFKGRFVFSLDTSVSTAYLQISSLKNEDMAVYFCARYAMDYWGQGTLVTVSS
VL: EAVVTQEPSLTVSPGGTVTLTCRSSTGAVTTSNYANWVQQKPGQAFTGLIGGTSNRAPGTPARFSGSLLGDKAALTLLGAQPEDEAEYFCALWYSTHYVFGGGTKLTVL
